Assay: soluble on expression in E. coli; label from the status in PepcDB or PDB records

With “MAFISFRDFMEKAVKDYYSSQRALKDFFTAPELDRAFGEALAEFFSQHLSEFERPALVELGAGRGLLAYDILNYYRANYPDLFNRLKYYIYEFSPYLISKQREVLKNFKNVEWVEELPKVEGIVFSNEFFDALPVHIVKGGKELYVDEKGSEVWLSLENEKVKEFLRRMNYENLNQIVEVCLDCIDMLKKISESLVEGYHFVIDYGYTSEEITKYPEGTVVAYKEHKVVKDFLKEAGNADITAHVNFSALMEYGRDFGLETILFQSQRDFLMHIPTFLNELEKLSWEESAESVERLSRLKTMLISMGDRFKVLLQRKLSQLEHHHHHH” the “soluble on expression in E. coli” value was “not soluble”.

For “MDRLQLYESKKLRRETPLSPLLRIFAGQSVHNHRPMYFRDVAGLEDLKTYLRRTAQTRQIAHAQLFAGEEGGGAFPLALAYARYLNCQMPTDTDACGHCPSCVKYDALAHPDLFFVYPVVNASSSPAPSDDYIRQWREMLGSESYFTPADWLEYIKAGNSQPIIYSKEAEAVEQKLSFRIYEASYRVVMIWQPERMNEAMANKLLKLIEEPPEHTLFFMISSEPDKVLGTIRSRTQLINVRLLHEIEIVEALSRNNQGNTADIIRIAHLAEGNYRRAMDLYRGEWADRDNFVLMGRMMGSIIKGDPSKMRPVADELAALGRVSQIGFLTYCLRLFRELYISRVGVAKLNYLSPEEESFVDMLSGGITGQNIRPVMEEVELAIRHIRQNGNGRMIFFDLLLRLTAALAPALRAKGLK”, the “soluble on expression in E. coli” value was “not soluble”.

With “MSLKPASVIIMDEHPIVRMSIEVLLGKNSNIQVVLKTDDSRTAIEYLRTYPVDLVILDIELPGTDGFTLLKRIKSIQEHTRILFLSSKSEAFYAGRAIRAGANGFVSKRKDLNDIYNAVKMILSGYSFFPSETLNFISNTRTPKGGHHDMPLSNREVTVLRYLANGMSNKEIAEQLLLSNKTISAHKANIFSKLGLHSIVELIDYAKSHELLEGHHHHHH” the “soluble on expression in E. coli” value was “soluble”.

With “MDGDFRTSFVREPAGLRPYPALVLNADYRPLSYYPLSLWPWQEAIKAAFLDRVSIVAEYDQVVRSQRAALRIPSVVVLKEFVSPQKRVAFTRFNLFLRDEFRCQYCGAKGDLTFDHVVPRARGGVTSWQNVVAACSPCNLHKGSKTLKQAGMRLARIPREPTPAEMQRHGQRFPPNHLHDSWLDYLYWDAELEALEHHHHHH” the “soluble on expression in E. coli” value was “not soluble”.

For “AIAASLSDQSGSIGSEQTRPSGAIPVESLPPQALEQLIASLQQEVEQLADALQQLNFANQRWTLCKQSIEAFAEETTRVDLPGAQSRATDAISSTASAKPETSVEVNQNQRLLVPLSRSLYVLGRVINPERCLIDIGTGYHVERKLADAAEFFDRRLKHVRGSMRQLTLKIDQNQQQMQTIREILVRKLAGAQQAAEHT”, the “soluble on expression in E. coli” value was “soluble”.

In the case of “MDSQAQVLILLLLWVSGTCGDIVMSQSPSSLAVSAGEKVTMSCKSSQSLLNSRTRKNYLAWYQQKPGQSPKLLIYWASTRESGVPDRFTGSGSGTDFTLTISSVQAEDLAVYYCKQSYNLYTFGGGTKLEIKRADAAPTVSIFPPSSEQLTSGGASVVCFLNNFYPKDINVKWKIDGSERQNGVLNSWTDQDSKDSTYSMSSTLTLTKDEYERHNSYTCEATHKTSTSPIVKSFNRNEC”, the “soluble on expression in E. coli” value is reported as “soluble”.

In the case of “MLKCAVDEAAGGRAQAFVSSGDNIGGSPFQSSILGDEPTLEALNQMGLDYSAVGNHEFDKGYADLSSRVADLADFDYLGANVEGENPDLAPYGISHLDGVKVAFVGTVSQETPMLVNSEGIEGITFTDPLEATNRVADELVGSGAADVVVALYHEGITGTEAWSENIDVVFAGHTH”, the “soluble on expression in E. coli” value is reported as “not soluble”.

In the case of “MVTQILGAMESQVGGGPAGPALPNGPLLGTNGATDDSKTNLIVNYLPQNMTQDEFKSLFGSIGDIESCKLVRDKITGQSLGYGFVNYSDPNDADKAINTLNGLKLQTKTIKVSYARPSSASIRDANLYVSGLPKTMSQKEMEQLFSQYGRIITSRILVDQVTGVSRGVGFIRFDKRIEAEEAIKGLNGQKPLGAAEPITVKFANNPSQKTGQALLTHLYQSSARRYAGPLHHQTQRFRLDNLLNMAYGVKSPLSLIARFSPIAIDGMSGLAGVGLSGGAAGAGWCIFVYNLSPEADESVLWQLFGPFGAVTNVKVIRDFTTNKCKGFGFVTMTNYDEAAMAIASLNGYRLGERVLQVSFKTSKQHKA”, the “soluble on expression in E. coli” value is reported as “soluble”.
